Paper PMC5555194
“And” between values parts separate entries of the source, which are not always exact repeats. Equal values may be shown once.

biological target: C3b (human) (UniProt P01024); test: SPR; C3b amine-coupled to a Biacore C1 chip; dilution series of CFH (from 2.5 to 0.019 uM), preincubated with or without a 2-fold molar excess of PspCN, flowed over; Biacore T200, 25 °C, 10 mM HEPES, 150 mM NaCl, 0.05% P20; 1:1 steady-state model; three experiments on different chips
Sequence (P01024 23-667, chain 1 of 2): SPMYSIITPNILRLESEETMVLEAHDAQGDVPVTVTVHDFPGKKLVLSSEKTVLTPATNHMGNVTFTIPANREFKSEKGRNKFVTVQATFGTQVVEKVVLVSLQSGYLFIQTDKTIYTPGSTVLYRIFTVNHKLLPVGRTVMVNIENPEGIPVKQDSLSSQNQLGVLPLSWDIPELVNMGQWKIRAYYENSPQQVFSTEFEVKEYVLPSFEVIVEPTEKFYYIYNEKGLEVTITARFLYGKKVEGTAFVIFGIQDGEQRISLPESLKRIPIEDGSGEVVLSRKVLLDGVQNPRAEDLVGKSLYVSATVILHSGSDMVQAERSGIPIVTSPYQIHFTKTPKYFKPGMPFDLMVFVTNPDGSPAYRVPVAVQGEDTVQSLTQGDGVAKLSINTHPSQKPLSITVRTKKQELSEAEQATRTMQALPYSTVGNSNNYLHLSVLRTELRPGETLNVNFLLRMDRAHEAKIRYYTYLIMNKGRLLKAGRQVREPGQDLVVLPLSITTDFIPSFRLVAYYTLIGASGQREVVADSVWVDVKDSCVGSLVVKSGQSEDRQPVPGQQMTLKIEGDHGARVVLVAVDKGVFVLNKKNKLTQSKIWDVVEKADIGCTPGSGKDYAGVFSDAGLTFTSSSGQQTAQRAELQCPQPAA
Sequence (P01024 749-1663, chain 2 of 2): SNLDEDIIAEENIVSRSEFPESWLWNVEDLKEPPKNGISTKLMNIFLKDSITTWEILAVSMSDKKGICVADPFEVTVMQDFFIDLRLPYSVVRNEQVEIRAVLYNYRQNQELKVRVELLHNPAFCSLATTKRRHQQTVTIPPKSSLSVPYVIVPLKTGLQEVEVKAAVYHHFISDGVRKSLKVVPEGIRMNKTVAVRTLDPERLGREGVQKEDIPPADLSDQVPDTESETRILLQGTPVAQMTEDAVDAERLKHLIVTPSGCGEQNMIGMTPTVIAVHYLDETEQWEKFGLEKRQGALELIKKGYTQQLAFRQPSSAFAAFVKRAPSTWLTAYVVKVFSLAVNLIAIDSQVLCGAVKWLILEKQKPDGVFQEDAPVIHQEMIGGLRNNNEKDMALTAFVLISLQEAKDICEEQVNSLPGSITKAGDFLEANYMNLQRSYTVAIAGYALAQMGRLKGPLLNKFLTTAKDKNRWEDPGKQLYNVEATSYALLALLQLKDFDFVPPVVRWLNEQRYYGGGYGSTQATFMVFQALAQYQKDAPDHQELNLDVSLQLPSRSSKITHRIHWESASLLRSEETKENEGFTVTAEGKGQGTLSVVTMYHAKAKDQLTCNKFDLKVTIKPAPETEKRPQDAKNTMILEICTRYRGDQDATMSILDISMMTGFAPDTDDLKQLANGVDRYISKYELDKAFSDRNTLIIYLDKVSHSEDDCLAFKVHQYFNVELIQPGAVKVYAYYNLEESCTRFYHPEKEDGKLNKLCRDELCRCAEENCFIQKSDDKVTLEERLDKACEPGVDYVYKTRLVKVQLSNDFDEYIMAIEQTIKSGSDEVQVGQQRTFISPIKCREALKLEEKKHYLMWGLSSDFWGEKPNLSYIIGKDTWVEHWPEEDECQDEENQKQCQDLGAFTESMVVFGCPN

| Substance | Kd |
| --- | --- |
| CFH purified from human plasma (plasma CFH) (from UniProt P08603 19-1231) (natural protein) | 330 nM |
| R53H-CFH–PspCN complex (from UniProt P08603 19-1231; Q9KK19 37-140) | 1000 nM and 580 nM |
| I62-CFH–PspCN complex (from UniProt P08603 19-1231; Q9KK19 37-140) | 620 nM and 500 nM |
| LA-CFH–PspCN complex (from UniProt P08603 19-1231; Q9KK19 37-140) | 700 nM and 600 nM |
